Source: patent publication US20230381328A1, “COMPOUND FOR THE PREVENTION OR TREATMENT OF MYASTHENIA GRAVIS” (ABLEVIA BIOTECH GMBH, priority 2020, published 2023)
Where no end group is shown, it is not given here.

Target: monoclonal antibody mAB 198
Test: peptide microarray, fluorescence, cyclic peptide

Row | relative signal [%] | Binder
1 | 11 | RWNPADR (also: cyclic peptide, ring type and places not given here) [RWNPADR, cyclic mimotope]
2 | 10.5 | DVRLRWNPSDY (also: cyclic peptide, mode of cyclisation not given here)
3 | 10.7 | QLRWNPADY (also: cyclic peptide, ring type and places not given here)
4 | 9.9 | TLRWNPADY (also: cyclic peptide, mode of cyclisation not given here)
5 | 9.9 | VRLRGNPAD (also: cyclic peptide, mode of cyclisation not given here)
6 | 8.6 | RLRTNPADY (also: cyclic peptide, ring type and places not given here)
7 | 8.5 | GGSLRLNPADY (also: cyclic peptide, mode of cyclisation not given here)
8 | 12.2 | RANPADY (also: cyclic peptide, ring type and places not given here) [RANPADY, cyclic mimotope]
9 | 9.7 | GSLRWNPADYQ (also: cyclic peptide, mode of cyclisation not given here)
10 | 10.6 | RLRQNPADY (not fully specified; cyclic peptide) [RLRONPADY, cyclic mimotope]
11 | 10 | GSLRWNPADYN (also: cyclic peptide, mode of cyclisation not given here)
12 | 11.5 | RIRWNPADY (also: cyclic peptide, ring type and places not given here)
13 | 9.8 | RLRPNPADY (also: cyclic peptide, ring type and places not given here)
14 | 10.8 | RLHWNPADY (also: cyclic peptide, ring type and places not given here)
15 | 9 | WNPDDYR (also: cyclic peptide, mode of cyclisation not given here) [WNPDDYR, cyclic mimotope]
16 | 10.3 | GGSLRWNPADR (also: cyclic peptide, mode of cyclisation not given here)

Further lines, the binder ahead of its results:

Row | Binder | relative signal [%]
17 | GSLRFNPADYG (also: cyclic peptide, mode of cyclisation not given here) | 10.4
18 | RLRWNPADYGS (also: cyclic peptide, ring type and places not given here) | 9.7
19 | VRLRINPADYG (also: cyclic peptide, mode of cyclisation not given here) | 10
20 | DVRLRQNPADY (not fully specified; cyclic peptide) [DVRLRONPADY, cyclic mimotope] | 8.8
21 | GSLRINPADYG (also: cyclic peptide, mode of cyclisation not given here) | 12.1
22 | LRGNPAD (also: cyclic peptide, mode of cyclisation not given here) [LRGNPAD, cyclic mimotope] | 9.1
23 | VRLRLNPADYG (also: cyclic peptide, mode of cyclisation not given here) | 9.7
24 | LRFNPAD (also: cyclic peptide, mode of cyclisation not given here) [LRFNPAD, cyclic mimotope] | 8.6
25 | SLRWNPADYHG (also: cyclic peptide, mode of cyclisation not given here) | 8.7
26 | NPADYGN (also: cyclic peptide, mode of cyclisation not given here) [NPADYGN, cyclic mimotope] | 8.7
27 | VRLRWNPADYS (also: cyclic peptide, mode of cyclisation not given here) | 10.5
28 | RLLWNPADY (also: cyclic peptide, ring type and places not given here) | 9.7
29 | ALRWNPADY (also: cyclic peptide, mode of cyclization not given here) | 11.5
30 | DVRLRYNPADY (also: cyclic peptide, mode of cyclisation not given here) | 10.5
31 | LRWNPADYR (also: cyclic peptide, mode of cyclisation not given here) | 10.3
32 | RLRWNPADYHG (also: cyclic peptide, ring type and places not given here) | 10.1
33 | RSRWNPADY (also: cyclic peptide, ring type and places not given here) | 9.8
34 | NPADYGY (also: cyclic peptide, ring type and places not given here) [NPADYGY, cyclic mimotope] | 11.8
35 | RPNPADYGG (also: cyclic peptide, ring type and places not given here) | 11.9
36 | SLYWNPADY (also: cyclic peptide, mode of cyclisation not given here) | 9.4
37 | RLRWNPADYGP (also: cyclic peptide, ring type and places not given here) | 10
38 | LRWNPADYGGF (also: cyclic peptide, mode of cyclisation not given here) | 10.3
39 | RWNPADF (also: cyclic peptide, ring type and places not given here) [RWNPADF, cyclic mimotope] | 9.1
40 | LRWNPADYPGI (also: cyclic peptide, mode of cyclisation not given here) | 8.9
41 | LRPNPADYG (also: cyclic peptide, mode of cyclisation not given here) | 10
42 | RLRGNPADYGG (also: cyclic peptide, ring type and places not given here) | 9
43 | SLRYNPADY (also: cyclic peptide, mode of cyclisation not given here) | 12.2
44 | GSLRWNPADYT (also: cyclic peptide, mode of cyclisation not given here) | 8.7
45 | GGSLRYNPADY (also: cyclic peptide, mode of cyclisation not given here) | 11.5
46 | GSLRWNPADYD (also: cyclic peptide, mode of cyclisation not given here) | 10.2
